Values joined by “and” are separate entries in the source; they are usually repeats but may differ in a detail not shown here. Equal values may be shown once.

For experiment [1], the target named is human ABCA1 transporter on stably transfected HeLa cells (human) (UniProt O95477). In words: two-step sequential competitive binding on ABCA1-transfected HeLa cells, competitor at 8 µM, tracer 125I-L-37pA.
Experiment [2] shares this target. The experiment can be described thus: direct binding of 125I-L-37pA at 1 µg/ml to ABCA1-transfected HeLa cells, 1 hour, 4 C. Further details: unit not given here.
Experiment [3] has the same target. The experiment can be described thus: cell-based or functional assay.

UniProt O95477, sequence (O95477 whole entry): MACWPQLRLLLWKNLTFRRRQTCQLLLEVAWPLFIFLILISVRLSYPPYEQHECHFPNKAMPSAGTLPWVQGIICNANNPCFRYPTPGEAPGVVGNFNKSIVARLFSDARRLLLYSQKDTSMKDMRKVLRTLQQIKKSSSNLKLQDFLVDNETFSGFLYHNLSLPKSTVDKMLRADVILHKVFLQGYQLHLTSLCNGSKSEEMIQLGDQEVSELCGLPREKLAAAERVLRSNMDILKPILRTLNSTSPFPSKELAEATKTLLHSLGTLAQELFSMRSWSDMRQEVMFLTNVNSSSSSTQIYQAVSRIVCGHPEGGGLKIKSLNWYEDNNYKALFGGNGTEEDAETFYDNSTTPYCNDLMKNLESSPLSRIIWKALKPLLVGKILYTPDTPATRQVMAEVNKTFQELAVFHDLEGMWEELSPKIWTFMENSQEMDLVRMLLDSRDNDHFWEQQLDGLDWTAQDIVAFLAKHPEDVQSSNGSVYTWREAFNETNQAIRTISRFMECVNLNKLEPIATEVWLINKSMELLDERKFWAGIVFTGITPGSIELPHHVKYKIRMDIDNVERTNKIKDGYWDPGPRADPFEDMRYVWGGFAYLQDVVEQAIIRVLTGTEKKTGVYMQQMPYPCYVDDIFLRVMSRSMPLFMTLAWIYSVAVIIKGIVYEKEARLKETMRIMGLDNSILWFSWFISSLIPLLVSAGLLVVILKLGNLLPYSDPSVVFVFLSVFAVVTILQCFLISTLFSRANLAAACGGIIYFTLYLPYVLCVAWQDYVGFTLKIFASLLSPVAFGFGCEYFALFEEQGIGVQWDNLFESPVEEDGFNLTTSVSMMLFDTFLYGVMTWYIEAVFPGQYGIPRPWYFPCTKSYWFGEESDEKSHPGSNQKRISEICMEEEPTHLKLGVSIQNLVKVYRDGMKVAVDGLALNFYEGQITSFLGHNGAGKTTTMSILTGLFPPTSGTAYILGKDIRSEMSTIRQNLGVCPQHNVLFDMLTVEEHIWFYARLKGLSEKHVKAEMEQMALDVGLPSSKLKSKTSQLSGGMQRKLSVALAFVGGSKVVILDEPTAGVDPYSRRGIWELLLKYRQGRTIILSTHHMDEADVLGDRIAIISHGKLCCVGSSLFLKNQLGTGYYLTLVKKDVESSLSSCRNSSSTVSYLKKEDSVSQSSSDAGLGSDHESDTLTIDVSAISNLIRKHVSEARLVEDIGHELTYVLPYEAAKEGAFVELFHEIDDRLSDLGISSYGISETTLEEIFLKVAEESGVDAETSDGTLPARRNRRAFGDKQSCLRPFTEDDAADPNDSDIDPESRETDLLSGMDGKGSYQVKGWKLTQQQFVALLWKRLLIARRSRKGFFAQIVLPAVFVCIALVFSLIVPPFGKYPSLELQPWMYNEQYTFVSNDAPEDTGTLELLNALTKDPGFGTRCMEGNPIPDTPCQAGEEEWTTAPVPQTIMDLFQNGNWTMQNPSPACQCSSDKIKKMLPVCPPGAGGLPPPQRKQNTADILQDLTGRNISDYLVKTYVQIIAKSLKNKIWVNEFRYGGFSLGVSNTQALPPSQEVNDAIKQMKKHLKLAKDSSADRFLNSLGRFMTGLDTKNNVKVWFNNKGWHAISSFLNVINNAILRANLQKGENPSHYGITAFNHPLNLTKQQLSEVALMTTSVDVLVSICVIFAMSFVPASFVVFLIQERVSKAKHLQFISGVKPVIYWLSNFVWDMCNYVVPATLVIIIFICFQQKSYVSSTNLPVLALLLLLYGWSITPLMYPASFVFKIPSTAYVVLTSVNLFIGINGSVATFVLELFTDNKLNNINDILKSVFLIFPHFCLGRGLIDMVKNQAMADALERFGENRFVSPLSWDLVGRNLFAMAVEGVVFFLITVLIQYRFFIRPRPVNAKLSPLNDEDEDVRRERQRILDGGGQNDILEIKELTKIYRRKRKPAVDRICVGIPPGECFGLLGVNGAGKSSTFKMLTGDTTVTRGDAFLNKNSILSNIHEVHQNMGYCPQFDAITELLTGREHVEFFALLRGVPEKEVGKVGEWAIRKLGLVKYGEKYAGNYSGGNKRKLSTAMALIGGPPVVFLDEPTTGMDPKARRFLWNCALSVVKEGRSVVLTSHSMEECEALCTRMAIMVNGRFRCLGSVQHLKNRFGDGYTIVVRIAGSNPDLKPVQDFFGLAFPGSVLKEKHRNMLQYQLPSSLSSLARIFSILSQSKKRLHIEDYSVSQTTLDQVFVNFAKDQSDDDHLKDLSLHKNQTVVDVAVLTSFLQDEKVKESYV

DWLKAFYDKVAEKLKEAFPDWLKAFYDKVAEKLKEAF [L-37pA peptide] showed a percent of labeled L-37pA binding blocked in experiment [1] of 40%. The same molecule had a cell-bound radiolabeled peptide in the absence of a competitor in experiment [2] of 35. Also, in experiment [3], the cholesterol and phospholipid efflux, ABCA1 cells against control cells, 18 hours is 2 fold and 4 fold; the concentration at which lipid efflux began to show saturation was 2 µM.
